# Assay: yeast display, Sf9 membrane polyspecificity reagent, FACS + sequencing; frameworks hold sequencing errors
# In short: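 Polyreactivity labels are assigned by the sorting gate from which each nanobody was recovered. The gates were low and high (top ~1%), set on anti-HA fluorescence for expression and streptavidin fluorescence for reagent binding. Before sorting, galactose-induced (36–48 hours) yeast display cells were stained for 1 hour at 4 °C with 10% biotinylated, detergent-solubilized Sf9 membrane reagent.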
row,Sequence,polyreactivity (PSR sort gate)
1,QVHLVESGGGLVQAGGSLRLSCAASGLTFRYYAMGWYRPAPGKERELVAAISWSGGSTYYADSVKGRFTISRDNAKNTVYLQMNSQKPEDTAVYDCNTVGRSSSLSVFLIGYGYWGQATQVTVSS,high polyreactivity
2,QLQLVESGGGLVQAGGSLRLSCAASGYMGWYRQAPGKERELVATISGSGGSTYYADSVKGRFTISRDNAKNTVYLQMNSLKPEDTAVYYCTTEIWGVNRSGYDYWGQGTQVTVSS,low polyreactivity
3,QVQLVESGGGLVQAGGSLRLSCAASGSIFLDYAMGWYRQAPGKERELVAAITSGGSTYYADSVKGRFTISRDNAKNTVYLQMNSLKPEDTAVYYCNDEYPQYKAGFYGYDYWGQGTQVTVSS,low polyreactivity
4,QVQLVESGAGLVQAGGSLRLSCAASGSTFYMYAMGWDRTATGKERELLADISLSGVSTYYADSVKGRFTFSRDNAKHTVYLQMNSLKPEDTAVYYCAADVFYPGPWSYEYWGQGTHVTVSS,low polyreactivity
5,QVQLEESRGGVVQAGGSLRLSCAASGSIITVYALGWERQAPGQERELVAGISRGGGTYYADSVTGRFTISRDNAKNCVYLQMNSLKPEDTAVYYCAAQIELWPYGIYQSGMYYWGQGTQVTVSS,low polyreactivity
6,QVQLVESGGGLVQAGGSLRLSCAASGLTLSGYAMGWYRQAPGKERELVAAISYTGGSTYYADSVKGRFTISRDNAKNTVYLQMNSLKPEDTAVYYCAARAGSRSFDYWGQGTQVTVSS,high polyreactivity
7,QVQLVESGGGLVQAGGSLRLSCAASGRTFYVYVMGWYRQAPGKEREFVAAINYGSTYYADSVKGRFTISRDNAKNTVYLQMNSLKPEDTAVYYCATRSGYDSVYYFYTLWYYYWGHGTQVTVSS,low polyreactivity
8,QVQLVESGGGLVQAGGSLRLSCAASGIIFYWNAMGWYRHAPGKERELVAGITRGGSTYYADSVKGRFTISRDNAKNTVYLQMNSLKPEDTAVYYCAKRHASRRVSYSRYDYWGQGTQVTVSS,high polyreactivity
9,QVQLVESGGGLVQAGGSLRLSCAASGSIFYFNDMGWYRQAPGKEREFVARITRSGSSTSYADSVKGRFTISRDNAKNTVYLQMNSLKPEDTAVYYCAARYRRYSTSRYYYWGQGTQVTVSS,high polyreactivity
10,QVQLVESGGGLGQAGGRLRLSCAASGSIFRRNAMGWYRQAPGKERELVAGISGGGSTYYADSVKGRFTISRDNAKNTVYLQMYSLKPEDTAVYYCATDKHYRWAGFDYWGQGTQVTVSS,low polyreactivity
11,QVQLVESGGGLVQAGGSLRLSCAASGSTFKFYTMGWYRQAPGKERELVATIDWSGGSTYYADSVKGRFTISRDNAKNTVYLQMNSLKPEDTAVYYCAAYSRSRTTRLGKYYYWGQGTQVTVSS,high polyreactivity
12,QVQLVESGGGLVQAGGSLRLSCAASARTFPWYAMGLYRQAPGKERELVAAISWTGGSTYYADSVKGRFTISRDNAKHTVYLQMNSLKPEDTAVYYCAASPWYLKYEYWGQGTQVTVSS,low polyreactivity
13,QVQLVDSGGGLVQAGGSLRLSCPASGSIISVYARGWYRQAPGKERELVADITGTGDTYYADSVKGRFTISRDKAKNTVYLHRNSLKPDDTAGYYCNTVYELYYDPSVTEDYWGQGTQVTVSS,low polyreactivity
14,QVQLVESGVGLVQAGGSLRLSCAASGFIFWLYAMGWYRQAPGKERELVAGITRGGGSTYYADSVKRRFTISRDNAKNTVYLQMNSLKPEDTAVYYCAADAWSSYLDRPFDYWGQGTQVTVSS,high polyreactivity
15,QVQLVESGGRLVQAGGSLRLSCAASGITFYLYAMGWYRQAPGKERELVAAISSSGGSTYYADSVKGRFTISRDNEKNTVYLQMNSLKPEDTAVYYCAAVFYTSVTIYDYWGQGTQVTVSS,high polyreactivity
16,QVQLVDSGGGLVQAGGSLRLSCAASGRTFRTNAMGWYRQAPGKERELVAAISSNGGTTYYADSVKGRFTISRDNAKNTVYLQMNSLKPEDTAVYYCNIESQYLWPEFDYWGQGTQVTVSS,low polyreactivity

row,Sequence,polyreactivity (PSR sort gate)
1,QVQLVESGGGLVQAGGSLRLRCAASGSTFSIYAMGWYRQATGKQRELVAAISSSGGSTYYADSVKGRFTISRDTAKNTGYLQMNSLKPEDTAFYYCNKRKYHVRYDYWGQGTQVTVSS,low polyreactivity
2,QVQLVESGGGLVQAGGSLRLSCAASGLTFWRYTMGWYRHAPGKERELVATIRRGTSTNYADSVKGRFTISRDNAKNTVYLQMNSLKPEDTAVYYCAAVPWRYYVEYDYWGQGTQVTVSS,high polyreactivity
3,QVQLVESGGGLVQAGGSLRLSCAASGSTFTVYAMGWYRQAPGKERELVAVITGSGGSTYYADSVKGRFTISRDNAKNTVYLQMNSLKPEDTAVYYCAKEPGENWTVSWRDFDYWGQGTQVTVSS,low polyreactivity
4,QVQLVESGGGLVQAGGSLRLSCAASGSIFYSYAMGWYRQAPGKERELVADITITGSTYYADSVKGRFTISRDNAKNTVYLQMNSLKPEDTAVYYCTAVLAPGGYDYWGQGTQVTVSS,low polyreactivity
5,QVQLVESGGGLVQAGGSLRLSCASSGSIFFGYGMGWYRQAPGKERELVATITTSGGTYYADSVKGRFRISRDNAKNTDYLQMNSLKPEDTAVYYCAATAAALDGNTIMYYWGQGTQVTVSS,low polyreactivity
6,QVQLVESGGGLVQAGGSLRLSCAASGRTIPFYAMGWYRQAPGKERELVAAISSSAGRTYYADSVKGRFSISRDNAKNTVYLQLNSLKPEDTAVYYCAARLYCRYRYDYWGQGTQVTVSS,low polyreactivity
7,QVQLVESGGGLVQAGGSLRLSCAASGRTFYRYAMGWYRQAPGKERELVAAITASGGSTYYADSVKGRFTISRDNAKNTVYLQMNSLKPEDTAVYYCAKGGKSRYSTWHGDYWGQGTQVTVSS,high polyreactivity
8,QVQLVESGGGLVQAGGSLRLSCAASGITFWNYAMGWYRQAPGKERELVAAISYSGGSTYYADSVKGRFTISRDNAKNTVYLQMNSLKPEDTAVYYCAATLPTNWVRYEYWGQGTQVTVSS,low polyreactivity
9,QVQLVESGGGLVQAGGSHRLSCAASGRTFWKYVMGWYRQAPGTERELVAVISRPAGSTYYADSVKGRFTISRHNEKNTVYLQMNSLKPEDTAVYYCAKRPKNKPVLGDYDHWGQGTQVTVSS,low polyreactivity
10,QVQLVESGGGLVQAGGSLRLSCAASGRTFTYYAMGWYRPAPGKERELVARITTDGSSTYYADSVKGRFTISRDNAKNTVYLQMNSLKPEDTAVYYCAADFQYAIHTDMDYWGQGTQVTVSS,high polyreactivity
11,QVQLVESGGGLVQAGGSLRLSCAASGSTFGLYAMGWYRQAPGKEREFVAAISWRTGSTYYADSVKGRFTISRDNAKNTVFLQMYSLKPEDTAVYYCAARAYGTIIHGYWGQGTHVTVSS,high polyreactivity
12,QVQLVESGGGLVQAGGSLRLSCAASGSIFQRNAMGWYRQAPGKERELVASISFSDGTTYYADSVKGRCTISRDNAKNTVYLQMNSLKPEDTAVYYCAKKAIVSDQWDKYDYWGQGTQVTVSS,low polyreactivity
13,QVQLVESWGGLVQAGGSLRLSCAASGRIFKTYAMGWYRQAPGNEREFFAAITSSGGSTYYADSVKGRFTISRDHAKNTVYLQKNSLNPEDTAVYYCNAGSLHRRYYYEGDYWGQGTQVTVSS,high polyreactivity
14,QVQLVQSGGGLVQAGGSLRLSCAASGRIFVDNAMAWYRQAPGKERELDAGLTTGGSTYYADSVKGRFTISRDNAKNTVYLQMNSLKPEDTAVYYCNARDHALHRDVLYWYGFDYWAQGTQVTVSS,low polyreactivity
15,QVQLVESAGGLVQAGGSLRLSCAPSGFTFALYAMRWYRQAPGNERELVAANTRSGRTKYADSVKGRFTISRDNAKNTVYLQMNSLKPEDTAVYYCAALFRYYVTTRFNYWGQGTQVTVSS,high polyreactivity
16,QVQLVESAGGLVQAGGSLRLICAASGSIFVKYAMGWYRQATGKERELVAAISRSGGSTYYADSVKGRFTISRDNAKNTVYLQMTSLKPEDTAVYYCAADGFRGDMYYWGQGTQVTVSS,low polyreactivity

# Reference: the nanobody polyreactivity screen of Harvey et al. (2022)
